Here are results for five molecules from patent publication US20210163584A1 (Sanofi, published 2021).

Experiment [1] addresses T1, TGF-β1 (UniProt P01137 279-390).
T1 construct: also called transforming growth factor-beta 1
The experiment can be described thus: SPR (Biacore); amine-coupled TGF-β1 on chip, antibody as analyte, kinetic fit. The text has this: Recombinant mAb1-D10 fusion variants of Example 7 were also quantitatively assessed for TGF-β1 binding using surface plasmon resonance (SPR) as detected by Biacore. Samples containing purified variants were passed over a sensor chip with amine-coupled TGF-β1 to determine the equilibrium constant, KD. A target immobilization level of less than 100 response units (RU) of TGF-β1 was chosen to minimize the potential for avidity effects arising from binding adjacent TGF-β1 molecules on the chip. The level of immobilization was determined by the change in response units after NHS/EDC activation of the chip surface, but before quenching with ethanolamine. The fusion variants, WT fusion variant F1, and mAb1 control were diluted to 30, 10, 3, 1 and 0.37 nM in HBS-EP buffer and passed over the TGF-β1 chip at 30 μL/min for 3 min, followed by 5 min dissociation in the same buffer. Between runs, the chip surface was regenerated to remove any bound antibody by passing two 30 sec injections of 40 mM HCl over the chip at a flow rate of 75 μL/min. […] Unexpectedly, the maximum signal (RU) elicited by the fusion variants decreased with increasing number of peptides, with variant F17 (D10-HC-D10/D10-LC, PAR=6) showing the lowest signal. […] A possible explanation of this decline may reflect electrostatic repulsion between the chip matrix (carboxymethyl dextran) and the negatively charged D10 peptides.

The target of experiment [2] is T1, TGF-β1. The experiment can be described thus: cell-based or functional assay.
Experiment [3] addresses T1, TGF-β1. In words: cell-based or functional assay. This is another data set of the same source.
The target in experiment [4] is T1, TGF-β1. The experiment can be described thus: cell-based or functional assay. The source holds these as a separate data set.
The target in experiment [5] is T1, TGF-β1. The experiment can be described thus: cell-based or functional assay. The source holds these as a separate data set.

Read-outs that look alike come from different tables or passages of the source.

T1 sequence (P01137 279-390 limits assumed): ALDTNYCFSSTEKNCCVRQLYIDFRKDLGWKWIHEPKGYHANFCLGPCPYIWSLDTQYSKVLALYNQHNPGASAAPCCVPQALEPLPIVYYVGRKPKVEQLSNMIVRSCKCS

B1: mAb1 F17 (antibody, mouse IgG1, kappa)
heavy: DDDDDDDDDDHVQLQQSGPELVRPGASVKLSCKASGYIFITYWMNWVKQRPGQGLEWIGQIFPASGSTNYNEMFEGKATLTVDTSSSTAYMQLSSLTSEDSAVYYCARGDGNYALDAMDYWGQGTSVTVSSAKTTPPSVYPLAPGSAAQTNSMVTLGCLVKGYFPEPVTVTWNSGSLSSGVHTFPAVLQSDLYTLSSSVTVPSSTWPSQTVTCNVAHPASSTKVDKKIVPRDCGCKPCICTVPEVSSVFIFPPKPKDVLTITLTPKVTCVVVDISKDDPEVQFSWFVDDVEVHTAQTKPREEQFNSTFRSVSELPIMHQDWLNGKEFKCRVNSAAFPAPIEKTISKTKGRPKAPQVYTIPPPKEQMAKDKVSLTCMITDFFPEDITVEWQWNGQPAENYKNTQPIMDTDGSYFVYSKLNVQKSNWEAGNTFTCSVLHEGLHNHHTEKSLSHSPGKDDDDDDDDDD
light: DDDDDDDDDDNIVLTQSPASLAVSLGQRATISCRASESVDSYGNSFMHWYQQKSGQPPKLLIYLASNLESGVPARFSGSGSRTDFTLTIDPVEADDAATYYCQQNNEDPLTFGAGTKLELKRADAAPTVSIFPPSSEQLTSGGASVVCFLNNFYPKDINVKWKIDGSERQNGVLNSWTDQDSKDSTYSMSSTLTLTKDEYERHNSYTCEATHKTSTSPIVKSFNRNEC
notes: Mouse IgG1 fusion variant, PAR 6; also called D10-HC-D10: D10-LC
In the case of B1, in the experiment with TGF-β1 [1], the Kd came out at 4.15 nM, the off-rate (koff) worked out at 0.00079 s⁻¹ and the kon came out at 191000 M⁻¹ s⁻¹. Moreover, the “IC50 (read off the curve); IL-11 release by A549 cells in response to TGF-β1” value (shortened to “IC50 (read off the curve); IL-11 release”) with TGF-β1 [2] is approximately 0.02 nM.

B2: mAb1 control conjugate (PAR=0) (antibody, mouse IgG1, kappa)
heavy: HVQLQQSGPELVRPGASVKLSCKASGYIFITYWMNWVKQRPGQGLEWIGQIFPASGSTNYNEMFEGKATLTVDTSSSTAYMQLSSLTSEDSAVYYCARGDGNYALDAMDYWGQGTSVTVSSAKTTPPSVYPLAPGSAAQTNSMVTLGCLVKGYFPEPVTVTWNSGSLSSGVHTFPAVLQSDLYTLSSSVTVPSSTWPSQTVTCNVAHPASSTKVDKKIVPRDCGCKPCICTVPEVSSVFIFPPKPKDVLTITLTPKVTCVVVDISKDDPEVQFSWFVDDVEVHTAQTKPREEQFNSTFRSVSELPIMHQDWLNGKEFKCRVNSAAFPAPIEKTISKTKGRPKAPQVYTIPPPKEQMAKDKVSLTCMITDFFPEDITVEWQWNGQPAENYKNTQPIMDTDGSYFVYSKLNVQKSNWEAGNTFTCSVLHEGLHNHHTEKSLSHSPGK
light: NIVLTQSPASLAVSLGQRATISCRASESVDSYGNSFMHWYQQKSGQPPKLLIYLASNLESGVPARFSGSGSRTDFTLTIDPVEADDAATYYCQQNNEDPLTFGAGTKLELKRADAAPTVSIFPPSSEQLTSGGASVVCFLNNFYPKDINVKWKIDGSERQNGVLNSWTDQDSKDSTYSMSSTLTLTKDEYERHNSYTCEATHKTSTSPIVKSFNRNEC
modifications: hinge disulfides reduced; D10-maleimide peptide omitted; thiols blocked with N-ethylmaleimide
In the case of B2, the “IC50 (read off the curve); IL-11 release” value with TGF-β1 [3] is approximately 0.05 nM. Further, the “half-maximal inhibition of IL-11 release (EC50), A549 cells” value (“half-maximal inhibition of IL-11 release” below) in the experiment with TGF-β1 [4] was approximately 0.1 nM.

B3: mAb1-D10 conjugate (PAR=5) (antibody, mouse IgG1, kappa)
heavy: B2 heavy
light: B2 light
modifications: Ac-D10-C2-PEG12-C6-maleimide on reduced hinge region cysteines; average 5 peptides per antibody
In the case of B3, in the experiment with TGF-β1 [3], the “IC50 (read off the curve); IL-11 release” value was approximately 0.06 nM. Further, in the experiment with TGF-β1 [4], the “half-maximal inhibition of IL-11 release” value was approximately 0.1 nM.

B4: mAb1-D10 conjugate (PAR=9) (antibody, mouse IgG1, kappa)
heavy: B2 heavy
light: B2 light
modifications: Ac-D10-C2-PEG12-C6-maleimide possibly on a light chain cysteine; Ac-D10-C2-PEG12-C6-maleimide on reduced hinge region cysteines; average 9 peptides per antibody (heavy and light chains together)
As for B4, the “IC50 (read off the curve); IL-11 release” value with TGF-β1 [3] was approximately 0.04 nM. Besides, in the experiment with TGF-β1 [4], the “half-maximal inhibition of IL-11 release” value was approximately 0.1 nM.

B5: mAb1 (mouse IgG1 anti-TGFβ monoclonal antibody, R&D Systems Clone #1D11) (antibody)
heavy: B2 heavy
light: B2 light
notes: Mouse IgG1, pan-specific anti-TGFβ; bought antibody used as control; also called unmodified mAb; mAb1 control
As for B5, the entries for the “IC50 (read off the curve); IL-11 release” value with TGF-β1 [5], with TGF-β1 [3] and in the experiment with TGF-β1 [2] were approximately 0.2 nM, approximately 0.2 nM and approximately 0.1 nM, respectively. This molecule also yielded a Kd with TGF-β1 [1] of 6 nM. Further, the koff in the experiment with TGF-β1 [1] turned out to be 0.001 s⁻¹. This molecule also yielded a kon in the experiment with TGF-β1 [1] of 167000 M⁻¹ s⁻¹. In the experiment with TGF-β1 [4], the “half-maximal inhibition of IL-11 release” value was approximately 0.1 nM.
